Experimental data as given in publication doi:10.1101/2024.09.05.611400.

Target: SARS-CoV-2 main protease (M^pro), commercial recombinant (rcM^pro) (SARS-CoV-2) (UniProt P0DTD1)
Assay: enzyme inhibition assay

Work on PPACK (D-Phe-Pro-Arg-CH2Cl) (peptide) yielded a Ki of 160 nM.
